Source: patent US20210369837A1, “METHODS OF TREATING TIM-3 ELEVATION” (ADVANTAGENE, INC., priority 2016, published 2021)

Test system: PD-L1
Experiment: Flow cytometry of PD-L1 protein expression after interferon treatment
Assay type: cell-based, mouse
Conditions: CT2A and GL261 cells, day 4 post-treatment, IFN-β 1000 U/ml (FIGS. 5C-5F)
Procedure: In another experiment, CT2A and GL261 cells were treated with IFN-β (1000 U/ml) (PBL Assay Science, Piscataway N.J.) and/or MAR-1-5A3 monoclonal antibody against IFNAR1 (BioXcel, West Lebanon, N.H.) ([…]). Cells were analyzed by flow cytometry for PD-L1 protein expression at day 4 post-treatment using either in the absence of specific antibody (isotype) or with PD-L1 specific antibody (BD Bioscience, San Jose, Calif.). Cells analyzed were either subjected to no treatment (untreated), or treated with INFα or INFβ.
FIG. 5D and FIG. 5F show quantification of the percent of live cells analyzed by flow cytometry that express surface PD-L1 above baseline.

B1: IFN-β: IFN-β (1000 U/ml) (PBL Assay Science) used to treat CT2A and GL261 cells (protein, UniProt P01575 22-182, looked up)
Interferon beta: INYKQLQLQERTNIRKCQELLEQLNGKINLTYRADFKIPMEMTEKMQKSYTAFAIQEMLQNVFLVFRNNFSSTGWNETIVVRLLDELHQQTVFLKTVLEEKQEERLTWEMSSTALHLKSYYWRVQRYLKLMKYNSYAWMVVRAEIFRNFLIIRRLTRNFQN
Surface expression of PD-L1 protein: increased surface expression of PD-L1 protein | Surface expression of PD-L1 protein (listed as INFβ): Increases in surface PD-L1 expression
